# Where a chain is given by its changes, count along the chain named. Like-named read-outs stand apart in the source and are kept apart here.
# B1: Delta 1-1 (antibody, V domains shown)
# VH: EVQLVESGGGLVQPGGSLRLSCAASGFTVSSSSIHWVRQAPGKGLEWVASISSYYGYTSYADSVKGRFTISADTSKNTAYLQMNSLRAEDTAVYYCAREEWMSYWYWPRYYYYGMDYWGQGTLVTVSS
# VL: DIQMTQSPSSLSASVGDRVTITCRASQSVSSAVAWYQQKPGKAPKLLIYSASSLYSGVPSRFSGSRSGTDFTLTISSLQPEDFATYYCQQAALMSPITFGQGTKVEIKR
# notes: Tested by SPR as human IgG made in ExpiCHO cells
# B2: Delta 1-6 (antibody, V domains shown)
# VH: EVQLVESGGGLVQPGGSLRLSCAASGFTVYSSSIHWVRQAPGKGLEWVASISPYSGSTSYADSVKGRFTISADTSKNTAYLQMNSLRAEDTAVYYCARMWYLSGWWTGDALDYWGQGTLVTVSS
# VL: B1 VL with A91G, A92Y, L93Y, M94S, S95A, P96L
# B3: Delta 1-3 (antibody, V domains shown)
# VH: EVQLVESGGGLVQPGGSLRLSCAASGFTLSSSSIHWVRQAPGKGLEWVASIYSSSGYTSYADSVKGRFTISADTSKNTAYLQMNSLRAEDTAVYYCARGLWSVWYYQFYSSMQGMDYWGQGTLVTVSS
# VL: DIQMTQSPSSLSASVGDRVTITCRASQSVSSAVAWYQQKPGKAPKLLIYSASSLYSGVPSRFSGSRSGTDFTLTISSLQPEDFATYYCQQGYEYPLTFGQGTKVEIKR
# notes: Tested by SPR as human IgG
# B4: Delta 1-13 (antibody, V domains shown)
# VH: EVQLVESGGGLVQPGGSLRLSCAASGFTFSSSSIHWVRQAPGKGLEWVASISSSSGSTSYADSVKGRFTISADTSKNTAYLQMNSLRAEDTAVYYCARTTSYIDEYFGFGWYAMDYWGQGTLVTVSS
# VL: B3 VL with G91S, Y92S, E93S, Y94S, P95L, L96I
# B5: Delta 1-10 (antibody, V domains shown)
# VH: EVQLVESGGGLVQPGGSLRLSCAASGFTFSSSSIHWVRQAPGKGLEWVASISSSSGSTSYADSVKGRFTISADTSKNTAYLQMNSLRAEDTAVYYCARSMVWYWGLNGYEEYAGGMDYWGQGTLVTVSS
# VL: B3 VL with G91S, Y92S, E93S, Y94S, P95L, L96I
# B6: Delta 1-15 (antibody, V domains shown)
# VH: EVQLVESGGGLVQPGGSLRLSCAASGFTFSSSSIHWVRQAPGKGLEWVASISSSSGSTSYADSVKGRFTISADTSKNTAYLQMNSLRAEDTAVYYCARYSWIYDSWWSGWAMDYWGQGTLVTVSS
# VL: B3 VL with G91S, Y92S, E93S, Y94S, P95L, L96I
# B7: Delta 1-17 (antibody, V domains shown)
# VH: EVQLVESGGGLVQPGGSLRLSCAASGFTVSSSSIHWVRQAPGKGLEWVASIYSSSGYTYYADSVKGRFTISADTSKNTAYLQMNSLRAEDTAVYYCARDPGMYYWYYSGSAYEGYGLDYWGQGTLVTVSS
# VL: B3 VL with G91S, Y92G, E93D, Y94D, P95L, L96I
# notes: also called Delta1-17 IgG
# B8: Delta 1-8 (antibody, V domains shown)
# VH: EVQLVESGGGLVQPGGSLRLSCAASGFTVSSSSIHWVRQAPGKGLEWVASIYSSSGYTYYADSVKGRFTISADTSKNTAYLQMNSLRAEDTAVYYCARPYYWYPYYYWSGGWEYAAFDYWGQGTLVTVSS
# VL: B3 VL with G91Y, Y92G, L96I
# Legend:
# [1] = biological target: T1, γδ1 TCR containing the delta1C chain (human, biotinylated in vitro using recombinant BirA (AviTag)); assay: SPR (Pioneer, OneStep): biotinylated TCR immobilised on a neutravidin-loaded Avicap chip, IgG flowed; apparent KD
# T1 construct: also called biotinylated TCR sample; gamma/delta1 TCR; not shown: Fc portion of mouse IgG; AviTag; His6 tag; TCR gamma chain fused to mouse IgG Fc
# T1 sequence (main, as listed by the source): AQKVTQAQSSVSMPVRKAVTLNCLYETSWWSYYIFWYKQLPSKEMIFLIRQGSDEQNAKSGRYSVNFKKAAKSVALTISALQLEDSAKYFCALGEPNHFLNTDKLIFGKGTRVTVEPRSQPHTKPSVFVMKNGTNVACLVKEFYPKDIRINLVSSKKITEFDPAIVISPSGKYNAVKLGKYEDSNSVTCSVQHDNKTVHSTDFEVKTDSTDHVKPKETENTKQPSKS
# [2] = biological target: T2, heterodimer containing Delta1C and gamma 3, Fc-fusion protein (human); assay: ELISA on gamma/delta TCR-Fc heterodimers immobilised on a microtiter plate, probed with the clone named over the panel (control panel: No Phage)
# T2 construct: the assay paragraph says only gamma 3; also called Delta1C/Gamma3; not shown: Fc portion of mouse IgG; AviTag; His6 tag
# T2 sequence (V domain, as listed by the source, chain 1 of 2): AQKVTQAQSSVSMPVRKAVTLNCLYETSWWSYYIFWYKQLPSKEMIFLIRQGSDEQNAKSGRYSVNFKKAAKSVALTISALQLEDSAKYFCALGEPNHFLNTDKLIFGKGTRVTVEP
# T2 sequence (V domain, as listed by the source, chain 2 of 2): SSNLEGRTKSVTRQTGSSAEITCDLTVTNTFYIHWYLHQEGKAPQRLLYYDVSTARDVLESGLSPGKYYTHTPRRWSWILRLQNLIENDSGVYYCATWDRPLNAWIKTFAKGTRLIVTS
# [3] = biological target: T3, heterodimer containing Delta1C and gamma 8, Fc-fusion protein (human); assay: as above
# T3 construct: the assay paragraph says only gamma 8; also called Delta1C/Gamma8; not shown: Fc portion of mouse IgG; AviTag; His6 tag
# T3 sequence (V domain, as listed by the source, chain 1 of 2): as the sequence (V domain, as listed by the source, chain 1 of 2) above
# T3 sequence (V domain, as listed by the source, chain 2 of 2): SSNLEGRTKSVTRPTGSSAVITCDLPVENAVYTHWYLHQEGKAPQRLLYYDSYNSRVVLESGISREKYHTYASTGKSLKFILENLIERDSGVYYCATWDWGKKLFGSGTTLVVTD
# [4] = biological target: T1, γδ1 TCR containing the delta1C chain; assay: SPR (Pioneer, OneStep): biotinylated TCR immobilised on a neutravidin-loaded Avicap chip, IgG flowed; apparent KD; remark: listed apart in the source
# Protocol: (§1) The affinity of the antibodies was assessed using surface plasmon resonance (SPR). A biotinylated TCR sample was immobilized on an Avicap chip (Pall ForteBio) that had been preloaded with neutravidin (ThermoFisher). IgG samples were flowed using the OneStep method on a Pioneer SPR instrument (Pall ForteBio).
# [5] = biological target: T2, heterodimer containing Delta1C and …; assay: ELISA on gamma/delta TCR-Fc heterodimers immobilised on a microtiter plate, probed with the clone named over the panel (control panel: No Phage); remark: listed apart in the source
# [6] = biological target: T3, heterodimer containing Delta1C and …; assay: as above; remark: listed apart in the source
# [7] = biological target: T1, γδ1 TCR containing the delta1C chain; assay: SPR (Pioneer, OneStep): biotinylated TCR immobilised on a neutravidin-loaded Avicap chip, IgG flowed; apparent KD; remark: listed apart in the source
# Protocol: as §1
# [8] = biological target: T1, γδ1 TCR containing the delta1C chain; assay: as above; remark: listed apart in the source
# Protocol: as §1
# [9] = biological target: T1, γδ1 TCR containing the delta1C chain; assay: as above; remark: listed apart in the source
# Protocol: as §1
# [10] = biological target: T2, heterodimer containing Delta1C and …; assay: ELISA on gamma/delta TCR-Fc heterodimers immobilised on a microtiter plate, probed with the clone named over the panel (control panel: No Phage); remark: listed apart in the source
# [11] = biological target: T3, heterodimer containing Delta1C and …; assay: as above; remark: listed apart in the source
# [12] = biological target: T2, heterodimer containing Delta1C and …; assay: as above; remark: listed apart in the source
# [13] = biological target: T3, heterodimer containing Delta1C and …; assay: as above; remark: listed apart in the source
# [14] = biological target: T1, γδ1 TCR containing the delta1C chain; assay: SPR (Pioneer, OneStep): biotinylated TCR immobilised on a neutravidin-loaded Avicap chip, IgG flowed; apparent KD; remark: listed apart in the source
# Protocol: as §1
# [15] = biological target: T2, heterodimer containing Delta1C and …; assay: ELISA on gamma/delta TCR-Fc heterodimers immobilised on a microtiter plate, probed with the clone named over the panel (control panel: No Phage); remark: listed apart in the source
# [16] = biological target: T3, heterodimer containing Delta1C and …; assay: as above; remark: listed apart in the source
# [17] = biological target: T2, heterodimer containing Delta1C and …; assay: as above; remark: listed apart in the source
# [18] = biological target: T3, heterodimer containing Delta1C and …; assay: as above; remark: listed apart in the source
binder,measurement,setting,value
B1,Kd,[1],10 nM
same,binding result,[2],no binding
same,binding result,[3],no binding
B2,Kd,[4],11 nM
same,binding result,[5],no binding
same,binding result,[6],no binding
B3,Kd,[7],50 nM
B4,Kd,[8],53 nM
B5,Kd,[9],24 nM
same,binding result,[10],no binding
same,binding result,[11],no binding
B6,binding result,[12],binds
same,binding result,[13],no binding
B7,Kd,[14],7 nM
same,binding result,[15],binds
same,binding result,[16],binds
B8,binding result,[17],binds
same,binding result,[18],binds
